The record followed here is paper PMC6642198 (Scientific Reports, 2019).

Numbering of substitutions follows the chain as printed. Names may count otherwise.

The target of data set [1] is T1, KCTD1 (full-length, residues 1-257) (human), Q719H9.
T1 chain: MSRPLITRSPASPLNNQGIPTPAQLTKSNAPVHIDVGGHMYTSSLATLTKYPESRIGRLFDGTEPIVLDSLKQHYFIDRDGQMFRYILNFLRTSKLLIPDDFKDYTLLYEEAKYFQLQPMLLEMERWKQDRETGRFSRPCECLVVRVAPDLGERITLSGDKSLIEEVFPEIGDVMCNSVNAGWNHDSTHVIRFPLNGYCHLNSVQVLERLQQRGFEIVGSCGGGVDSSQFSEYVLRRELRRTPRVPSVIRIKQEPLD
The data set is described as follows: SEC; analytical size-exclusion chromatography, Superdex 200 10/30, Tris-HCl 20 mM pH 7.8, NaCl 100 mM, glycerol 5%, CHAPS 0.01%, DTT 4 mM; column calibrated with marker proteins; number of chains from apparent over theoretical monomer molecular weight. The following applies: remark: other sources report otherwise. (In general: Size exclusion chromatography separates by hydrodynamic size, large species first.)

Data set [2] deals with the molecule itself. The description is as above.

B1: KCTD1 (full-length, residues 1-257), Q719H9 1-257 (natural protein)
chain: T1 chain
Broadly, the stoichiometry N is the number of molecules, sites or subunits per partner or assembly. As for B1, the stoichiometry N in data set [1] worked out at 4.5.

B2: KCTD1^H33P (full-length KCTD1 with the SEN-causing mutation H33P) (natural protein, human, UniProt Q719H9 1-257, looked up)
chain: T1 chain with H33P
notes: KCTD1, full-length protein, residues 1-257, disease-causing missense variant H33P; the mutation occurs in families with SEN syndrome; also called KCTD^H33P; source: E. coli BL21(DE3), purified (His-trap, TEV digestion, Superdex 200); not shown: polyHis, N-terminal, cleaved
Turning to B2, the binding result in data set [2] is recorded as “binds”.

B3: KCTD1^D69E (full-length KCTD1 with the SEN-causing mutation D69E) (natural protein, human, UniProt Q719H9 1-257, looked up)
chain: T1 chain with D69E
notes: KCTD1, full-length protein, residues 1-257, disease-causing missense variant D69E; the mutation occurs in families with SEN syndrome; also called KCTD^D69E; source: E. coli BL21(DE3), purified (His-trap, TEV digestion, Superdex 200); not shown: polyHis, N-terminal, cleaved
Turning to B3, the binding result in data set [2] was “binds”.

B4: KCTD1^H74P (full-length KCTD1 with the SEN-causing mutation H74P) (natural protein, human, UniProt Q719H9 1-257, looked up)
chain: T1 chain with H74P
notes: KCTD1, full-length protein, residues 1-257, disease-causing missense variant H74P; the mutation occurs in families with SEN syndrome; also called KCTD^H74P; source: E. coli BL21(DE3), purified (His-trap, TEV digestion, Superdex 200); not shown: polyHis, N-terminal, cleaved
Take B4: in data set [2], the binding result was “binds”.

B5: KCTD1^P20S (full-length KCTD1 with the SEN-causing mutation P20S) (natural protein, human, UniProt Q719H9 1-257, looked up)
chain: T1 chain with P20S
notes: KCTD1, full-length protein, residues 1-257, disease-causing missense variant P20S; the mutation occurs in families with SEN syndrome; also called KCTD^P20S; source: E. coli BL21(DE3), purified (His-trap, TEV digestion, Superdex 200); not shown: polyHis, N-terminal, cleaved
Consider B5, for which the binding result in data set [2] is given as “binds”.

B6: KCTD1^G62D (full-length KCTD1 with the SEN-causing mutation G62D) (natural protein, human, UniProt Q719H9 1-257, looked up)
chain: T1 chain with G62D
notes: KCTD1, full-length protein, residues 1-257, disease-causing missense variant G62D; the mutation occurs in families with SEN syndrome; One sentence of the modelling section prints Gly62Glu; everywhere else G62D; also called KCTD^G62D; source: E. coli BL21(DE3), purified (His-trap, TEV digestion, Superdex 200); not shown: polyHis, N-terminal, cleaved
As to B6, the binding result in data set [2] is “binds”.

B7: KCTD1 BTB domain (KCTD1^BTB, residues 1-135) (domain or fragment, human, UniProt Q719H9 1-135, looked up)
chain: MSRPLITRSPASPLNNQGIPTPAQLTKSNAPVHIDVGGHMYTSSLATLTKYPESRIGRLFDGTEPIVLDSLKQHYFIDRDGQMFRYILNFLRTSKLLIPDDFKDYTLLYEEAKYFQLQPMLLEMERWKQDRETGR
notes: KCTD1, pre-BTB region and BTB domain, residues 1-135; source: E. coli BL21(DE3), purified (His-trap, TEV digestion, Superdex 200); not shown: polyHis, N-terminal, cleaved
As for B7, the “stoichiometry N” value in data set [2] is ~4.5.

B8: KCTD1 C-terminal domain (KCTD1^CTD, residues 134-235) (domain or fragment, human, UniProt Q719H9 134-235, looked up)
chain: GRFSRPCECLVVRVAPDLGERITLSGDKSLIEEVFPEIGDVMCNSVNAGWNHDSTHVIRFPLNGYCHLNSVQVLERLQQRGFEIVGSCGGGVDSSQFSEYVL
notes: KCTD1, C-terminal domain, residues 134-235; The sentences on expression host and on TEV removal of the tag list KCTD1, KCTD1^BTB and the point mutants but not KCTD1^CTD; source: recombinantly expressed (pETM11), purified (Superdex 200)
Regarding B8, the “stoichiometry N” value in data set [2] is ~4.5.
